# Results as given in the nanobody polyreactivity screen of Harvey et al. (2022).
# Assay: yeast display, Sf9 membrane polyspecificity reagent, FACS + sequencing; frameworks hold sequencing errors
# Summary of the method: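 Sorting gates, low and high (top ~1%), were placed on anti-HA fluorescence to track expression and on streptavidin fluorescence to track reagent binding. A clone's polyreactivity label is taken from the gate it came out of. The reagent was 10% biotinylated, detergent-solubilized Sf9 membrane, applied for 1 hour at 4 °C to galactose-induced yeast display cells.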
row,Sequence,polyreactivity (PSR sort gate)
1,QVQLVESGGGLVQAGGSLRLSCAASGFIFRYYAMGWYRQAPGKERELVAAITSRGSSTYYADSVKGRFTISRDNAKNTVYLQMNSLKPEDTAVYYCAARLRGDYVRYDYWGQGTQVTVSS,high polyreactivity
2,QVQLVESGGGLVQAGGSLRLSCAASGFIFRYYAMGWYRQAPGKERELVARIRSSGGSTYYADSVKGRFTISRDNAKKTVYLKMNSLKPEDTAVYYCDTVSYITYYGGYGYWGQGTQVTVSS,high polyreactivity
3,QVQLVESGGGLVQAGGSLRLSCAASGFIFRYYAMGWYRQAPGKERELVATINSSGGSTYYADSVKGRFTISRDNAKNTVYLQMNSLKPEDTAVYYCYAGYVSYRGQSRYEYWGQGTQVTVSS,high polyreactivity
4,QVQLVESGGGLVQAGGSLRLSCAASGFIFRYYTMGWYRQAPGKERELVAAISYSGGRTYYADSVKGRFTISRDNAKNTVYLQMNSVKPEDTAVYYCAARQGYVDDDYWGQGTQVTVSS,high polyreactivity
5,QVQLVESGGGLVQAGGSLRLSCAASGFIFRYYTMGWYRQAPGKERELVAAITSGGSTTYADSVKGRFTISRDNAKNTVYFQMNSLKPEDTAVYYCNTAYWYSLYDYWGQGTQVTVSS,high polyreactivity
6,QVQLVESGGGLVQAGGSLRLSCAASGFIFRYYTMGWYRQAPRKERELVASITSGGSTYYADSVKGRFTSSRDNAKNTVYLQMNCLKPEDTAVYSCAKHRDVLWRYKYWGQGTQVTVSS,high polyreactivity
7,QVQLVESGGGLVQAGGSLRLSCAASGFIFRYYVMGWYRQAPGKERELVAAITGSGGSTYYADSVKGRFTISRDNAKNTVYLQMNSLKPEDTAVYYCAARVWPIVQNYYWGQGTQVTVSS,high polyreactivity
8,QVQLVESGGGLVQAGGSLRLSCAASGFIFSCYAMGWDRQAPGKERELVAAISWSGGSTYYADSVKGRFTISRDNAKNTVYLQMNSLKPEDTAVYYCAADRGYRRLFLNNVDYWGQGTQVTVSS,high polyreactivity
9,QVQLVESGGGLVQAGGSLRLSCAASGFIFSENAMGWYRQAPGKERELVAAISDGGGSTYYADSVKGRFTISRDNAKNTVYLQMNSLKPEDTAVYYCNAVYHPKGPSGYGYWGQGTQVTVSS,low polyreactivity
10,QVQLVESGGGLVQAGGSLRLSCAASGFIFSKNAMGWSRQAPGKERELVAAISYSGGSTYYADSVKGRFTISRDNAKNTVYLQMNSLKPEDTAVNYCAAGGIYAPSSEYDSWGQGTQVTVSS,low polyreactivity
11,QVQLVESGGGLVQAGGSLRLSCAASGFIFSKNVMGWYRQAPGKERELVARITRSGGTTYYADSVKVRFTISRDNAKNTVYLQMHRLKQEDTAVYYCAARRYGYTSITWYDYWGQGTQVTVSS,high polyreactivity
12,QVQLVESGGGLVQAGGSLRLSCAASGFIFSKYAMGWYRQAPGKERELVAAISWNGGSTYYADSVKGRFTISRDNAKNTVYLQMNSLKPEDTAVYYCNTGYGRIRRPGALDYWGQGTQVTVSS,high polyreactivity
13,QVQLVESGGGLVQAGGSLRLSCAASGFIFSLYAMGWYRQAPGKERELVAAITRGGSTKYADSVKGRFTISRDNAKNTVYLQMNSLKPEDTAVYYCAARYNGKLNWGQGTQVTVSS,high polyreactivity
14,QVQLVESGGGLVQAGGSLRLSCAASGFIFSLYAMGWYRQAPGTERELVAAISKRGGSTNYADSVKGRFTISRDNAKNTVYLQMNSLKPEDTAVYYCAKARPGFLYDHWGQGTQVTVSS,high polyreactivity
15,QVQLVESGGGLVQAGGSLRLSCAASGFIFSNNAMGWYIEAPGKERELVAVINGGGSTYYADSVKGRFTISRDNAKNTVYLQMNSLKPEDTAVYYCARKSWPKEGRVDPGYDYWGQGTQVTVSS,low polyreactivity
16,QVQLVESGGGLVQAGGSLRLSCAASGFIFSNNDRGLYRQAPGKDREVVAVINGGGSTYYADSVKASFTISRDNAKNTVFLQMNSLKPEDTAVYYCARKSWPKERRVDPGYDYWGQGTKVTVSS,low polyreactivity
17,QVQLVESGGGLVQAGGSLRLSCAASGFIFSPNAMGWYRQAPGKEREFVAAIRYSGTSTSYADSVKGRFTISRDNAKNTVYLQMNSLKPEDTAVYYCAAGRSNSYSPRRRVTYGYNYWGQGTQVTVSS,high polyreactivity
18,QVQLVESGGGLVQAGGSLRLSCAASGFIFSRYAMGWYRQAPGKERELVAAISWSGASTYYADSVKGRFTISRDNAKNTVYLQMNSLKPEYTAVYYCNAVVTYHYSVSSVGSRYDYWGQGTQVTVSS,high polyreactivity
19,QVQLVESGGGLVQAGGSLRLSCAASGFIFSRYDMGWYRQAPGKERELVAAIDWSGDSTYYADSVKGRFTISRDNAKHTVYLQMNSLQPEDTAVYYCAAYYYWGQGTQVTVSS,low polyreactivity
20,QVQLVESGGGLVQAGGSLRLSCAASGFIFSRYTMGWYRQAPGKERELVAAITARGSSTYYADSVKGRFTISRDIAKNTVYLQMISLKPEDTAVYYCNAGQYVFYRPYDYWGQGTQVTVSS,high polyreactivity
21,QVQLVESGGGLVQAGGSLRLSCAASGFIFSSYAMGWYRQAPGKEREFVAAIDWNSTSTYYADSVKGRFTISRDNAKNTVYLQMNSLKPEDTAVYYCAADWVGYFVYPYDYWGQGTQVTVSS,high polyreactivity
22,QVQLVESGGGLVQAGGSLRLSCAASGFIFSSYAMGWYRQAPGKERELVAAISKSGDRTSYADSVKGRFTISRDNAKNTVYLQMNSLKPEDTAVYYCAKDRLYRTKKYRDMYYWGQGTQVTVSS,high polyreactivity
23,QVQLVESGGGLVQAGGSLRLSCAASGFIFSVNAMGWYRQAPGKERELVAAISKRGGRTYYADSVKGRFTISRDNAKNTVYLQMNSLKPEDTAVYYCAADQPTLAYPGGYSAGMDYWGQGTQVTVSS,high polyreactivity
24,QVQLVESGGGLVQAGGSLRLSCAASGFIFSWNAMGWYRQAPGKERELVAGISWSGGSTYYADSVKGRFTISRDNAKNTVYLQMNSLKPEDTAVYYCAKEPSVGTGGVYRYGRGDYWGQGTQVTVSS,low polyreactivity
25,QVQLVESGGGLVQAGGSLRLSCAASGFIFSWYAMGWSRQAPGKERELVAAIDQSGDSTYYADSVKGRFTISRDNAKNTVYLQMNSLKPEDTAVYYCAAQSYDYWYDYDYWGQGTQVTVSS,high polyreactivity
26,QVQLVESGGGLVQAGGSLRLSCAASGFIFSWYAMGWSRQAPGKERELVAAISHDGGSTYYADSVKGRFTISRDNAKNTVYLQMNSLKPEDTAVYYCAAAFRAAGRTVRYYWGQGTQVTVSS,high polyreactivity
27,QVQLVESGGGLVQAGGSLRLSCAASGFIFSWYAMGWYRQAPGKERELVAAITSGGSTYYADSVKGRFTISRDNAKNTFYLQMNSLKPEDTAVYYCGTVVTYRYAFPYGYWGQGTQVTVSS,high polyreactivity
28,QVQLVESGGGLVQAGGSLRLSCAASGFIFSYAMGWYRQAPGKERELVAAISKSGGRTYYADSVKGRFTISRDNAKNTVYLQMNSLIPEDTAVYYCAVRDLHLSNARYNYWGQGSQVTVSS,high polyreactivity
29,QVQLVESGGGLVQAGGSLRLSCAASGFIFSYNAMRWYRQAPGKERELTYADSVKGRFTISRDNAKNTVYLQMNSLKPEDTAVYFCAAGEYGRQYDGDYWGQATQVTVSS,low polyreactivity
30,QVQLVESGGGLVQAGGSLRLSCAASGFIFSYYAKGWYRQAPGKERELVAAIDGSGGSTYYADSVKGRFTISRDNAKNTVYLQMNSLKPVDTAVYYCNTLIFIQGLGYDYWGQGTQVTVSS,high polyreactivity
